# Laboratory results from patent publication US20190167710A1 (UNIVERSITY OF PITTSBURGH OF THE COMMONWEALTH SYSTEM OF …, published 2019).
# B1: stimulator of interferon genes (STING), mouse, endogenous in iBMDMs and RAW264.7 cells (other, UniProt Q3TBT3 1-378, looked up)
# chain: MPYSNLHPAIPRPRGHRSKYVALIFLVASLMILWVAKDPPNHTLKYLALHLASHELGLLLKNLCCLAEELCHVQSRYQGSYWKAVRACLGCPIHCMAMILLSSYFYFLQNTADIYLSWMFGLLVLYKSLSMLLGLQSLTPAEVSAVCEEKKLNVAHGLAWSYYIGYLRLILPGLQARIRMFNQLHNNMLSGAGSRRLYILFPLDCGVPDNLSVVDPNIRFRDMLPQQNIDRAGIKNRVYSNSVYEILENGQPAGVCILEYATPLQTLFAMSQDAKAGFSREDRLEQAKLFCRTLEEILEDVPESRNNCRLIVYQEPTDGNSFSLSQEVLRHIRQEEKEEVTMNAPMTSVAPPPSVLSQEPRLLISGMDQPLPLRTDLI
# notes: Endogenous protein in cell lysates
# B2: TANK-binding kinase 1 (TBK1), mouse, endogenous in iBMDMs and RAW264.7 cells (enzyme, UniProt Q9WUN2 1-729, looked up)
# chain: MQSTSNHLWLLSDILGQGATANVFRGRHKKTGDLYAVKVFNNISFLRPVDVQMREFEVLKKLNHKNIVKLFAIEEETTTRHKVLIMEFCPCGSLYTVLEEPSNAYGLPESEFLIVLRDVVGGMNHLRENGIVHRDIKPGNIMRVIGEDGQSVYKLTDFGAARELEDDEQFVSLYGTEEYLHPDMYERAVLRKDHQKKYGATVDLWSVGVTFYHAATGSLPFRPFEGPRRNKEVMYKIITGKPSGAISGVQKAENGPIDWSGDMPLSCSLSQGLQALLTPVLANILEADQEKCWGFDQFFAETSDVLHRMVIHVFSLQHMTAHKIYIHSYNTAAVFHELVYKQTKIVSSNQELIYEGRRLVLELGRLAQHFPKTTEENPIFVTSREQLNTVGLRYEKISLPKIHPRYDLDGDASMAKAVTGVVCYACRTASTLLLYQELMRKGVRWLVELVKDDYNETVHKKTEVVITLDFCIRNIEKTVKVYEKLMKVNLEAAELGEISDIHTKLLRLSSSQGTIESSLQDISSRLSPGGLLADTWAHQEGTHPRDRNVEKLQVLLNCITEIYYQFKKDKAERRLAYNEEQIHKFDKQKLYYHATKAMSHFSEECVRKYEAFKDKSEEWMRKMLHLRKQLLSLTNQCFDIEEEVSKYQDYTNELQETLPQKMLAASGGVKHAMAPIYPSSNTLVEMTLGMKKLKEEMEGVVKELAENNHILERFGSLTMDGGLRNVDCL
# notes: Endogenous protein in cell lysates; also called TBK1/NAK
# B3: TIR-domain-containing adapter-inducing interferon-β (TRIF), mouse, endogenous in iBMDMs and RAW264.7 cells (other, UniProt Q80UF7 1-732, looked up)
# chain: MDNPGPSLRGAFGILGALERDRLTHLKHKLGSLCSGSQESKLLHAMVLLALGQDTEARVSLESLKMNTVAQLVAHQWADMETTEGPEEPPDLSWTVARLYHLLAEENLCPASTRDMAYQVALRDFASQGDHQLGQLQNEAWDRCSSDIKGDPSGFQPLHSHQGSLQPPSASPAVTRSQPRPIDTPDWSWGHTLHSTNSTASLASHLEISQSPTLAFLSSHHGTHGPSKLCNTPLDTQEPQLVPEGCQEPEEISWPPSVETSVSLGLPHEISVPEVSPEEASPILPDALAAPDTSVHCPIECTELSTNSRSPLTSTTESVGKQWPITSQRSPQVPVGDDSLQNTTSSSPPAQPPSLQASPKLPPSPLSSASSPSSYPAPPTSTSPVLDHSETSDQKFYNFVVIHARADEQVALRIREKLETLGVPDGATFCEEFQVPGRGELHCLQDAIDHSGFTILLLTASFDCSLSLHQINHALMNSLTQSGRQDCVIPLLPLECSQAQLSPDTTRLLHSIVWLDEHSPIFARKVANTFKTQKLQAQRVRWKKAQEARTLKEQSIQLEAERQNVAAISAAYTAYVHSYRAWQAEMNKLGVAFGKNLSLGTPTPSWPGCPQPIPSHPQGGTPVFPYSPQPPSFPQPPCFPQPPSFPQPPSFPLPPVSSPQSQSFPSASSPAPQTPGPQPLIIHHAQMVQLGVNNHMWGHTGAQSSDDKTECSENPCMGPLTDQGEPLLETPE
# notes: Endogenous protein in cell lysates; also called TICAM-1
# B4: TANK-binding kinase 1 (TBK1), human, endogenous in THP1 cells (enzyme, UniProt Q9UHD2 1-729, looked up)
# chain: MQSTSNHLWLLSDILGQGATANVFRGRHKKTGDLFAIKVFNNISFLRPVDVQMREFEVLKKLNHKNIVKLFAIEEETTTRHKVLIMEFCPCGSLYTVLEEPSNAYGLPESEFLIVLRDVVGGMNHLRENGIVHRDIKPGNIMRVIGEDGQSVYKLTDFGAARELEDDEQFVSLYGTEEYLHPDMYERAVLRKDHQKKYGATVDLWSIGVTFYHAATGSLPFRPFEGPRRNKEVMYKIITGKPSGAISGVQKAENGPIDWSGDMPVSCSLSRGLQVLLTPVLANILEADQEKCWGFDQFFAETSDILHRMVIHVFSLQQMTAHKIYIHSYNTATIFHELVYKQTKIISSNQELIYEGRRLVLEPGRLAQHFPKTTEENPIFVVSREPLNTIGLIYEKISLPKVHPRYDLDGDASMAKAITGVVCYACRIASTLLLYQELMRKGIRWLIELIKDDYNETVHKKTEVVITLDFCIRNIEKTVKVYEKLMKINLEAAELGEISDIHTKLLRLSSSQGTIETSLQDIDSRLSPGGSLADAWAHQEGTHPKDRNVEKLQVLLNCMTEIYYQFKKDKAERRLAYNEEQIHKFDKQKLYYHATKAMTHFTDECVKKYEAFLNKSEEWIRKMLHLRKQLLSLTNQCFDIEEEVSKYQEYTNELQETLPQKMFTASSGIKHTMTPIYPSSNTLVEMTLGMKKLKEEMEGVVKELAENNHILERFGSLTMDGGLRNVDCL
# notes: as for B2
# B5: cyclic-guanosine monophosphate-adenosine monophosphate (cGAMP) synthase (cGAS), human, endogenous in THP1 cells (enzyme, UniProt Q8N884 1-522, looked up)
# chain: MQPWHGKAMQRASEAGATAPKASARNARGAPMDPTESPAAPEAALPKAGKFGPARKSGSRQKKSAPDTQERPPVRATGARAKKAPQRAQDTQPSDATSAPGAEGLEPPAAREPALSRAGSCRQRGARCSTKPRPPPGPWDVPSPGLPVSAPILVRRDAAPGASKLRAVLEKLKLSRDDISTAAGMVKGVVDHLLLRLKCDSAFRGVGLLNTGSYYEHVKISAPNEFDVMFKLEVPRIQLEEYSNTRAYYFVKFKRNPKENPLSQFLEGEILSASKMLSKFRKIIKEEINDIKDTDVIMKRKRGGSPAVTLLISEKISVDITLALESKSSWPASTQEGLRIQNWLSAKVRKQLRLKPFYLVPKHAKEGNGFQEETWRLSFSHIEKEILNNHGKSKTCCENKEEKCCRKDCLKLMKYLLEQLKERFKDKKHLDKFSSYHVKTAFFHVCTQNPQDSQWDRKDLGLCFDNCVTYFLQCLRTEKLENYFIPEFNLFSSNLIDKRSKEFLTKQIEYERNNEFPVFDEF
# notes: as for B1
# Tests used:
# [1] = molecular target: T1, anaplastic lymphoma kinase (ALK), mouse, endogenous in iBMDMs and RAW264.7 cells (mouse, UniProt P97793 19-1621, limits assumed); experiment: co-immunoprecipitation from iBMDMs and RAW264.7 cells after 3'3'-cGAMP or c-di-AMP (10 µg/ml, 16 h)
# T1 construct: Endogenous protein in lysates of mouse macrophage lines (co-immunoprecipitation); also called ALK Receptor Tyrosine Kinase
# Experimental: (§1) Concentrations of proteins in the supernatant were determined by bicinchoninic acid assay. […] Following incubation, agarose/sepharose beads were washed extensively with PBS and proteins were eluted by boiling in 2× sodium dodecyl sulfate (SDS) sample buffer before SDS-PAGE electrophoresis.
# (§2) To elucidate the possible role of ALK in the regulation of the STING signaling pathway, we tested whether ALK promotes the phosphorylation of core components of the STING pathway (STING, TBK1, and cGAS) through protein-protein interaction using co-immunoprecipitation techniques.
# [2] = molecular target: T2, anaplastic lymphoma kinase (ALK), human, endogenous in THP1 cells (human, UniProt Q9UM73 19-1620, limits assumed); experiment: co-immunoprecipitation from THP1 cells after 3'3'-cGAMP or c-di-AMP (10 µg/ml, 16 h)
# T2 construct: Endogenous protein in lysates of human THP1 monocytes; also called ALK Receptor Tyrosine Kinase
# Experimental: as §1, §2
# T1 sequence (P97793 19-1621 limits assumed): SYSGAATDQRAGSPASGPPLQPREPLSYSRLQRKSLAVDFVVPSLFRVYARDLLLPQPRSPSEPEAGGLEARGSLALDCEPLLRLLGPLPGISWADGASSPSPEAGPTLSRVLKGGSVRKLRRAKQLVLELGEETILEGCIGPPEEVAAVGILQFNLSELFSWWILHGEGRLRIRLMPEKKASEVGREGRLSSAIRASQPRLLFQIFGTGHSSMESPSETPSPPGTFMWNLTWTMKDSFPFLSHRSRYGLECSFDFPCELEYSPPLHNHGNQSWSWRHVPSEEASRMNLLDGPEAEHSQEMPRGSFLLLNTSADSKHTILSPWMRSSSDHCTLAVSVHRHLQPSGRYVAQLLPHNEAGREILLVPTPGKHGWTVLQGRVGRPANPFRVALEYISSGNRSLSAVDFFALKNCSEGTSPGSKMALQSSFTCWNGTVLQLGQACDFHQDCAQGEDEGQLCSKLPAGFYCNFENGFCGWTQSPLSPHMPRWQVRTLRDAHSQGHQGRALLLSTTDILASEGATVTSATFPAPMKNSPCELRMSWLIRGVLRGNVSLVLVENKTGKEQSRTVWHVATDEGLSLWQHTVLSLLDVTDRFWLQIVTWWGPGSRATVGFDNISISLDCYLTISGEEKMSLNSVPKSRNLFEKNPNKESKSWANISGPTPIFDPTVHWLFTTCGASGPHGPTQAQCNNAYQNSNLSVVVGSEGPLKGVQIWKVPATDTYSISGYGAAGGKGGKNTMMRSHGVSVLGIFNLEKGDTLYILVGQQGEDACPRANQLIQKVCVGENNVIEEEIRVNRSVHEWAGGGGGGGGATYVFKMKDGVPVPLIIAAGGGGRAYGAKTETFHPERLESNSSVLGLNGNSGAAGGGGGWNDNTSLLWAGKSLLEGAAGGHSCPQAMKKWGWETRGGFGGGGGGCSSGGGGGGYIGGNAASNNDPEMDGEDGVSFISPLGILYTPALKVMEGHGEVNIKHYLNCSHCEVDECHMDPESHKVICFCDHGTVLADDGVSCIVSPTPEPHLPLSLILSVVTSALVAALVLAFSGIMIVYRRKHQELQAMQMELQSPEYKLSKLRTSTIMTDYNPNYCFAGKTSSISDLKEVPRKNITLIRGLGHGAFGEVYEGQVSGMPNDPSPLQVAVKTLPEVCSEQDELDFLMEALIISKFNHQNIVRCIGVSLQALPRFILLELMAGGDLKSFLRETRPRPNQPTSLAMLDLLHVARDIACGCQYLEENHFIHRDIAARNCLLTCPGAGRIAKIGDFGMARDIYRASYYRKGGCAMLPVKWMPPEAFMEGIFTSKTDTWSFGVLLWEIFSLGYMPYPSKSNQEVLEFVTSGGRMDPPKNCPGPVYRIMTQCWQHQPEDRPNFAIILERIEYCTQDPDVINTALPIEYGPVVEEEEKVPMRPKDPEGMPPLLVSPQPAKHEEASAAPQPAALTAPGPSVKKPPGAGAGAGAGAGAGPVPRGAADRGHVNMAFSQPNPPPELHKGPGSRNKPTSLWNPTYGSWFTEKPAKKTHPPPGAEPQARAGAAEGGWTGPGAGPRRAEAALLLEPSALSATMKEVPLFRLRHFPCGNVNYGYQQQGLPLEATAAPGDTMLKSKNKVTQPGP
# T2 sequence (Q9UM73 19-1620 limits assumed): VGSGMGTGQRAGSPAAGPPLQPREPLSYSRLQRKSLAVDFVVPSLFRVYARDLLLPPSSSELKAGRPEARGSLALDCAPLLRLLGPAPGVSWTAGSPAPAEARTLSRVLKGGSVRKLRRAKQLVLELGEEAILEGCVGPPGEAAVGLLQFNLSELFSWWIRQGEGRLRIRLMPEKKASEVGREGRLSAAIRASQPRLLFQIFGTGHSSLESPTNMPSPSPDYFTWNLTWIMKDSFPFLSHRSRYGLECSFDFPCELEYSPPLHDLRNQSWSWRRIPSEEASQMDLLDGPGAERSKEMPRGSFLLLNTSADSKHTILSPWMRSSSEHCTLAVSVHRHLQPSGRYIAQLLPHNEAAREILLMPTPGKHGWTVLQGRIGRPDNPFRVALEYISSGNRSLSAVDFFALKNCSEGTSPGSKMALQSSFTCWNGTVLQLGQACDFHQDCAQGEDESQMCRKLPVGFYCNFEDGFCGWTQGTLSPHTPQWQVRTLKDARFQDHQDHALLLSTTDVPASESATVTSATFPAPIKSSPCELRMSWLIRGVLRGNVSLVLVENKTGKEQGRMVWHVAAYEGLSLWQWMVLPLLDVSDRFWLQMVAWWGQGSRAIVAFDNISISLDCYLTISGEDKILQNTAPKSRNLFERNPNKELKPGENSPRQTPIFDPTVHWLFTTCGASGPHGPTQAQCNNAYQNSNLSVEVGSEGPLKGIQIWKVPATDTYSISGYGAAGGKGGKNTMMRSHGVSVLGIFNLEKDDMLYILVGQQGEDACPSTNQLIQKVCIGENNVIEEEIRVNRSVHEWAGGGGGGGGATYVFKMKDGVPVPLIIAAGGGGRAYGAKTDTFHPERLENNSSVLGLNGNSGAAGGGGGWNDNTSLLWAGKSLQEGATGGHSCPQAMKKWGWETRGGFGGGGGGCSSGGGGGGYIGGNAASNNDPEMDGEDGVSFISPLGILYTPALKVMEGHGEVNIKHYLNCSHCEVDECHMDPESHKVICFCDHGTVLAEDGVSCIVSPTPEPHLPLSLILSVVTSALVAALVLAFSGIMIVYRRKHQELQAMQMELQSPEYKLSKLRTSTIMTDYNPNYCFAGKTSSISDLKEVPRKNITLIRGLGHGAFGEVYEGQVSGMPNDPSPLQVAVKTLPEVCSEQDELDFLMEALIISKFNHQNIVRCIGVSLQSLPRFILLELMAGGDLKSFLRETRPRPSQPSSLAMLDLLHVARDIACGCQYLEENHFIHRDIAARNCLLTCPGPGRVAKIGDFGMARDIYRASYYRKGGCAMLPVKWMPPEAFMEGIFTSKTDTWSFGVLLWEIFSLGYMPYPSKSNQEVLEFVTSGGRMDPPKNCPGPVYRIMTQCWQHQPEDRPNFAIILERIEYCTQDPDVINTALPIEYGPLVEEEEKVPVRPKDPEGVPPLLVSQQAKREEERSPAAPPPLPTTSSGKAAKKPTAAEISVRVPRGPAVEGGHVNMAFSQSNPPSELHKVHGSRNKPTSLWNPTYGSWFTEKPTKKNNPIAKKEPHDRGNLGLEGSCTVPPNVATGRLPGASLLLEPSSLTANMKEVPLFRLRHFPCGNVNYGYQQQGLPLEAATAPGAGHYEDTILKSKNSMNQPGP
Binder,binding result [1],binding result [2]
B1,no binding,–
B2,no binding,–
B3,no binding,–
B4,–,no binding
B5,–,no binding
